The target of assay [1] is T1, Nucleolin construct R1234G (aa 285–710) (human, UniProt P19338 285-710). Nature of the assay: co-IP.
For assay [2], the target named is T1, Nucleolin construct R1234G (aa 285–710). Nature of the assay: flow cytometry on cells.

T1 sequence (P19338 285-710, stated change not applied): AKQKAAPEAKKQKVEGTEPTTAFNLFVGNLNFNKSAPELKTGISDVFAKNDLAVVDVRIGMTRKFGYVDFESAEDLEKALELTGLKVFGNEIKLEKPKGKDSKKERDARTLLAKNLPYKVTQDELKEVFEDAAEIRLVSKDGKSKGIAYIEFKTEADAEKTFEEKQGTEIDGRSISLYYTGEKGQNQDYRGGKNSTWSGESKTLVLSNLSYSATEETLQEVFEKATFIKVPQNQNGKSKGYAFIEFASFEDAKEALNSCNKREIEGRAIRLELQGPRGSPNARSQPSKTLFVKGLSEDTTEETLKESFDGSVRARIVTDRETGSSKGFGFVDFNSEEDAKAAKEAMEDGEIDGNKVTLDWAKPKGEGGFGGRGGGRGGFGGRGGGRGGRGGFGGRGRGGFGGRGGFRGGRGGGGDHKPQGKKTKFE

B1: C1QTNF4 (aa 17–329, full-length) (ligand)
chain: not shown
With B1, in assay [1], the binding result is “binds”.

B2: GFP-C1QTNF4 (aa 17–329) (ligand)
chain: not shown
As to B2, the binding result in assay [2] is recorded as “binds”.

The values above are taken from PMC8042453 (The Journal of Biological Chemistry, 2021).
